B1: library; numbered along this chain (parent)
chain: MAAAAAAAAEQQSSNGPVKKSMREKAVERRSVNKEHNSNFKAGYIPIDEDRLHKTGLRGRKGNLAICVIILLFILAVINLIITLVIWAVIRIGPNGCDSMEFHESGLLRFKQVSDMGVIHPLYKSTVGGRRNENLVITGNNQPIVFQQGTTKLSVENNKTSITSDIGMQFFDPRTQNILFSTDYETHEFHLPSGVKSLNVQKASTERITSNATSDLNIKVDGRAIVRGNEGVFIMGKTIEFHMGGNMELKAENSIILNGSVMVSTTRLPSSSSGDQLGSGDWVRYKLCMCADGTLFKVQVTSQNMGCQISDNPCGNTH

Variants of: B1
Assay: SGCB cell-surface expression functional score (HA stain, bin4 vs bin1, normalised to synonymous) (log10 ratio); higher = more cell-surface SGCB (functional)
How it was run: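 Codon-saturation libraries of HA-tagged, YFP-fused human beta-sarcoglycan were lentivirally transduced at MOI <0.1 into HEK293 cells stably expressing alpha-, gamma- and delta-sarcoglycan. YFP-positive cells were sorted after 72 hours, grown 5–7 days, stained on ice with Alexa Fluor 647 anti-HA, fixed, sorted into four 5% intensity bins and amplicon-sequenced. The functional score is the log ratio of highest-bin to lowest-bin variant frequency, taken as the median over codons and duplicate transductions. Synonymous variants were scaled per section to mean 0, SD 0.5.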

SGCB cell-surface expression functional score (log10), by site and new letter:
Q276: N -0.22, S -0.37, I 0.1, W -1.29, A -0.49, E 0.14, D 0.34, V -0.56, F -0.23, T -1.1, M 0.2, L -0.3, C -1, Y 0.02, H -0.07, P -0.4, K 0.11, R -0.17, G 0.24
D275: V 0.12, P -1.24, W -0.16, Q -1.58, S -0.06, Y 0.17, R -0.53, T -0.08
G278: W 0.16, N 0.05, A 0.15, Q 0.09, V 0.32, E 0.27, D 0.31, R 0.05, K 0.27, P 0.23, Y 0.08, C 0.13, I 0.08, M 0.18, S 0.15, T 0.14, F 0.12, H -0.29, L -0.05
G280: F 0.08, C -0.75, A -0.01, H 0.05, M 0.03, P 0.06, I 0.26, V 0.01, D -0.56, R -0.45, W -0.37, Q -0.26, Y -0.23, N 0.37, S 0.11, E 0.02, L -0.28, T -0.11, K 0.07
S279: G -0.07, C 0.08, A 0.39, R 0.16, D 0.24, V 0.21, W -0.2, Y 0.05, K -0.05, F -0.13, T 0.09, L 0.22, E 0.22, P 0.24, M 0.56, Q -0.19, H -0.04, N 0.15, I -0.06
R284: A 0.33, C 0.03, E -1.26, D -1.55, F -0.51, G -0.11, H 0.16
L277: Y -0.12, C -1.31, W 0.44, N 0.08, A -0.39, T 0.24, F -0.4, E 0.02, R -0.27, M -0.2, P -1.21, Q -0.65, V -0.49, G -0.19, I 0.41, S -0.88, K -1.8, H 0.19, D -0.09
W282: T -0.1, M -0.29, Y -0.08, S -0.06, F 0.36, N 0.08, L 0.08, P 0.15, C -0.37, I 0.19, Q 0.08, V 0.04, K -0.08, D -0.17, R 0.12, H 0.22, E -0.07, A 0.11, G 0.21
D281: E 0.11, L 0.08, T -0.28, A -0.2, Y 0.16, S -0.22, G -0.06, I -0.27, F 0.45, V -0.16, Q 0.18, K 0.25, H -1.11, C -1.63, N 0.25, R -0.24, M 0.67, P -0.06, W -1.51
V283: T -0.38, M 0.74, N 0.35, G 0.12, K 0.04, R -0.21, Q -0.56, A -0.15, P -0.19, I 0.38, E 0.19, S -0.34, L 0.37, W -1.26, F -0.17, H -0.24, C 0.36, D -0.63, Y -0.55

From the supplement of paper PMC10266784
